T1: PpFAAH1 (Physcomitrium patens, UniProt A0A7I4CIU2)
T1 construct: full length cDNA in pDEST15 (GST tag), E. coli BL21(DE3), GST column, tag removal not mentioned; cloning primers translate to N-terminus MAQNKMR and C-terminus FYNILK; catalytic triad K202, S278, S302
T1 sequence (A0A7I4CIU2 1-601): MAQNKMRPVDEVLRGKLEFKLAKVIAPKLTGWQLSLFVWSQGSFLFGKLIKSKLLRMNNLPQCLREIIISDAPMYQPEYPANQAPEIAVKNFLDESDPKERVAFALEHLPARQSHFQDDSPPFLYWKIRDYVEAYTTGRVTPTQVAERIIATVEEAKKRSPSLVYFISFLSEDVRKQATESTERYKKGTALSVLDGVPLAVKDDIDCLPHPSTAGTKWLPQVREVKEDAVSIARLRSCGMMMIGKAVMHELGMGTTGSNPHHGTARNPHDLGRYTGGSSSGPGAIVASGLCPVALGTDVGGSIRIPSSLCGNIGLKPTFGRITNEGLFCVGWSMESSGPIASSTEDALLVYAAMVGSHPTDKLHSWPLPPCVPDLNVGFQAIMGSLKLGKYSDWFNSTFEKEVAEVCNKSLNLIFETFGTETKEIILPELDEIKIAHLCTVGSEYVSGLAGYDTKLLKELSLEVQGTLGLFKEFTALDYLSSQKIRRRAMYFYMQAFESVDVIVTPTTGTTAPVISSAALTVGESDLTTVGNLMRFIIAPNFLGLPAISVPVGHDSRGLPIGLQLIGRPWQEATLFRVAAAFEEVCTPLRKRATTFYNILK


Legend:
PpFAAH1 = biological target: T1, PpFAAH1; test: radiolabeled amidohydrolase assay, TLC with radiometric scanner, […] min preincubation with inhibitor; type: biochemical; details: read-out: % inhibition at 10 nM
[1] = substrate: CCCCC/C=C\C/C=C\C/C=C\C/C=C\CCCC(=O)NCCO; test: radiolabeled amidohydrolase assay, TLC with radiometric scanner; type: biochemical, Physcomitrium patens; details: pH 8.0, 37 °C, labelled compound ([1-14C])
Protocol: radiolabeled amidohydrolase assay, TLC with radiometric scanner on PpFAAH1 | The kinetic parameters, Km and Vmax for PpFAAH1 with anandamide as a substrate were determined

Row | Molecule | inhibition at 0.01 µM (PpFAAH1) | Km [1] | kcat [1]
1 | NC(=O)c1cccc(-c2cccc(OC(=O)NC3CCCCC3)c2)c1 [URB597, [3-(3-carbamoylphenyl)phenyl] N-cyclohexyl carbamate] | 20% | – | –
2 | PpFAAH1 (Physcomitrium patens) (protein, full length cDNA in pDEST15 (GST tag), E. coli BL21(DE3), GST column, tag removal not mentioned; cloning primers translate to N-terminus MAQNKMR and C-terminus FYNILK; catalytic triad K202, S278, S302) MAQNKMRPVDEVLRGKLEFKLAKVIAPKLTGWQLSLFVWSQGSFLFGKLIKSKLLRMNNLPQCLREIIISDAPMYQPEYPANQAPEIAVKNFLDESDPKERVAFALEHLPARQSHFQDDSPPFLYWKIRDYVEAYTTGRVTPTQVAERIIATVEEAKKRSPSLVYFISFLSEDVRKQATESTERYKKGTALSVLDGVPLAVKDDIDCLPHPSTAGTKWLPQVREVKEDAVSIARLRSCGMMMIGKAVMHELGMGTTGSNPHHGTARNPHDLGRYTGGSSSGPGAIVASGLCPVALGTDVGGSIRIPSSLCGNIGLKPTFGRITNEGLFCVGWSMESSGPIASSTEDALLVYAAMVGSHPTDKLHSWPLPPCVPDLNVGFQAIMGSLKLGKYSDWFNSTFEKEVAEVCNKSLNLIFETFGTETKEIILPELDEIKIAHLCTVGSEYVSGLAGYDTKLLKELSLEVQGTLGLFKEFTALDYLSSQKIRRRAMYFYMQAFESVDVIVTPTTGTTAPVISSAALTVGESDLTTVGNLMRFIIAPNFLGLPAISVPVGHDSRGLPIGLQLIGRPWQEATLFRVAAAFEEVCTPLRKRATTFYNILK | – | 2.3 µM | 1.4 S^−1
